IntAct's records for PubMed 21376300

B1: Band 4.1-like protein 1 (Rattus norvegicus (Rat)), Q9WTP0 (parent)
chain: MTTETGPDSEVKKAQEETPQQPEAAAAVTTPVTPAGHSHPETNSNEKHLTQQDTRPAEQSLDMEEKDYCEADGLSERTTPSKAQKSPQKIAKKFKSATCRVTLLDASEYECEVEKHGRGQVLFDLVCEHLNLLEKDYFGLTFCDADSQKNWLDPSKEIKKQIRSSPWNFAFTVKFYPPDPAQLTEDITRYYLCLQLRADIITGRLPCSFVTHALLGSYAVQAELGDHDTEEHVGNYVSELRFAPNQTRELEERIMELHKTYRGMTPGEAEIHFLENAKKLSMYGVDLHHAKDSEGIDIMLGVCANGLLIYRDRLRINRFAWPKILKISYKRSNFYIKIRPGEYEQFESTIGFKLPNHRSAKRLWKVCIEHHTFFRLVSPEPPPKGFLVMGSKFRYSGRTQAQTRQASALIDRPAPFFERSSSKRYTMSRSLDGAEFSRPASVSENHDAGPDGDKREDDAESGGRRSEAEEGEVRTPTKIKELKPEQETTPRHKQEFLDKPEDVLLKHQASINELKRTLKEPNSKLIHRDRDWERERRLPSSPASPSPKGTPEKASERAGLREGSEEKVKPPRPRAPESDTGDEDQDQERDAVFLKDNHLAIERKCSSITVSSTSSLEAEVDFTVIGDYHGGAFEDFSRSLPELDRDKSDSETEGLVFARDLKGPSSQEDESGGIEDSPDRGACSTPELPQFESVKAETMTVSSLAIRKKIEPEAMLQSRVSTADSTQVDGGAPAAKDFMTTPPCITTETISTTMENSLKSGKGAAAMIPGPQTVATEIRSLSPIIGKDVLTSTYGATAETLSTSTTTHVTKTVKGGFSETRIEKRIIITGDEDVDQDQALALAIKEAKLQHPDMLVTKAVVYRETDPSPEERDKKPQES
B2: Voltage-dependent calcium channel gamma-2 subunit (Rattus norvegicus (Rat)), Q71RJ2 (parent)
chain: MGLFDRGVQMLLTTVGAFAAFSLMTIAVGTDYWLYSRGVCKTKSVSENETSKKNEEVMTHSGLWRTCCLEGNFKGLCKQIDHFPEDADYEADTAEYFLRAVRASSIFPILSVILLFMGGLCIAASEFYKTRHNIILSAGIFFVSAGLSNIIGIIVYISANAGDPSKSDSKKNSYSYGWSFYFGALSFIIAEMVGVLAVHMFIDRHKQLRATARATDYLQASAITRIPSYRYRYQRRSRSSSRSTEPSHSRDASPVGVKGFNTLPSTEISMYTLSRDPLKAATTPTATYNSDRDNSFLQVHNCIQKDSKDSLHANTANRRTTPV

Variants of: B1
Details: with gria1_rat Gria1, P19490
Target sequence in this assay (P19490 whole entry): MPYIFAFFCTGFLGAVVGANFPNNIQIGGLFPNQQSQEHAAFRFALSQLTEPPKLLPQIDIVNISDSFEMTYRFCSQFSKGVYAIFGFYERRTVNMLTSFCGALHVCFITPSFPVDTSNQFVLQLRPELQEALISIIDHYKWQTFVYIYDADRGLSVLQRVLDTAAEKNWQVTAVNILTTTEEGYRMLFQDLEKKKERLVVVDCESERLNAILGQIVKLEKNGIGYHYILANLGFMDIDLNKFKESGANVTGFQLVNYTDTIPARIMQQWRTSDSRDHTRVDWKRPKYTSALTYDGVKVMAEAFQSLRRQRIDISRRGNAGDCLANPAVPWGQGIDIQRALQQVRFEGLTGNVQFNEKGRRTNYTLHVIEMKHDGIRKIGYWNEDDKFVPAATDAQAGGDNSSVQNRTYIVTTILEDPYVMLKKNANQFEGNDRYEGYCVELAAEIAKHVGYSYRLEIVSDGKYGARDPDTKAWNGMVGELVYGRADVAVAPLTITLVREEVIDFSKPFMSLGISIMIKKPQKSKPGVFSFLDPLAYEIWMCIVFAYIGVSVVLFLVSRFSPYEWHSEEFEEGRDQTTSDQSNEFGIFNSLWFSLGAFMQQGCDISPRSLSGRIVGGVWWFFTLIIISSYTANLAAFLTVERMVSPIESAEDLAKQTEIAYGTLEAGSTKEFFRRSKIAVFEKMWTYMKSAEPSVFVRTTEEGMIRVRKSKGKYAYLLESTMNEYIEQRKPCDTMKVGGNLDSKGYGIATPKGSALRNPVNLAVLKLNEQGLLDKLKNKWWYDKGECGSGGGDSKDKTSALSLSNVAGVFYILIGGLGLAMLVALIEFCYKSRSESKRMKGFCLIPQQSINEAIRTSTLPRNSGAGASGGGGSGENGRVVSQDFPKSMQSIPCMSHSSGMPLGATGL
In the case of P852S, the “effect of a mutation on the interaction” value is reported as “decreasing interaction”.

Variants of: B2
Details: with gria1_rat Gria1, P19490
Target sequence in this assay (P19490 whole entry): as above
In the case of MGLFDRGVQMLLTTVGAFAAFSLMTIAVGTDYWLYSRGVCKTKSVSENETSKKNEEVMTHSGLWRTCCLEGNFKGLCKQIDHFPEDADYEADTAEYFLRAVRASSIFPILSVILLFMGGLCIAASEFYKTRHNIILSAGIFFLSAGLSNIIGIIVYISANAGDPSKSDSKKNSYSYGWSFYFGALSFIIAEMVGVLAVHMFIDRHKQLRATARATDYLQASAITRIPSYRYRYQRRSRSSSRSTEPSHSRDASPVGVKGFNTLPSTEISMYTLSRDPLKAATTPTATYNSDRDNSFLQVHNCIQKDSKDSLHANTANRRTTPV [V143L], the “effect of a mutation on the interaction” value is reported as “decreasing interaction”.

Variants of: B2
Details: with gria2_rat Gria2, P19491
gria2_rat Gria2, P19491, sequence (P19491 whole entry): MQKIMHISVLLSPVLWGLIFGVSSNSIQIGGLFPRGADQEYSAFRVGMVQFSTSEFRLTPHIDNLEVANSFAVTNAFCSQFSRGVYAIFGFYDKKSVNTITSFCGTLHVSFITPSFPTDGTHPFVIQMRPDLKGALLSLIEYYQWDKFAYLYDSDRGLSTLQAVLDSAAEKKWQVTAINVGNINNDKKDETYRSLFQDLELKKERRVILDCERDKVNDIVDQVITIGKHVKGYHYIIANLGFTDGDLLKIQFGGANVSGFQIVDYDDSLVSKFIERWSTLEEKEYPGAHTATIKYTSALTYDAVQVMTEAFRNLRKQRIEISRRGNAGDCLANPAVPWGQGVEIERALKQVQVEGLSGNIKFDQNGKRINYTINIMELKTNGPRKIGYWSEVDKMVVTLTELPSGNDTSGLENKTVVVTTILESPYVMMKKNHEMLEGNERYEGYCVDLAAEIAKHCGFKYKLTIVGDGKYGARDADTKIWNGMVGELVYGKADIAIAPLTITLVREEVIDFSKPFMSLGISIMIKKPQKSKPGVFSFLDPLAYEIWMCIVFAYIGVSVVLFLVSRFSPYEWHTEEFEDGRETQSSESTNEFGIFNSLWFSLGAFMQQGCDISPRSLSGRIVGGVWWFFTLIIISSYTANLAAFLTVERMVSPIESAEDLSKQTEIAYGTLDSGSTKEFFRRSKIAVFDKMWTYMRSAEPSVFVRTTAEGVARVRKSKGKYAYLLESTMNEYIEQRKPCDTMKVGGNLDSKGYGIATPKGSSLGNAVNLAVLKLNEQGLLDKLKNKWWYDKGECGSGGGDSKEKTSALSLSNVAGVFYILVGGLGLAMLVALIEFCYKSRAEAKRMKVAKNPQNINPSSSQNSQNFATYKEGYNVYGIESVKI
For MGLFDRGVQMLLTTVGAFAAFSLMTIAVGTDYWLYSRGVCKTKSVSENETSKKNEEVMTHSGLWRTCCLEGNFKGLCKQIDHFPEDADYEADTAEYFLRAVRASSIFPILSVILLFMGGLCIAASEFYKTRHNIILSAGIFFLSAGLSNIIGIIVYISANAGDPSKSDSKKNSYSYGWSFYFGALSFIIAEMVGVLAVHMFIDRHKQLRATARATDYLQASAITRIPSYRYRYQRRSRSSSRSTEPSHSRDASPVGVKGFNTLPSTEISMYTLSRDPLKAATTPTATYNSDRDNSFLQVHNCIQKDSKDSLHANTANRRTTPV [V143L], the “effect of a mutation on the interaction” value was “decreasing interaction”.
